Assay results reported in patent US20240052047A1 (Pfizer, published 2024).

Target: human IL27 receptor (IL27RA/gp130 heterodimer) on human cells (human, UniProt Q6UWB1 33-636; P40189 23-918)
Assay: cell-based or functional assay

Chain of human IL27 receptor (IL27RA/gp130 heterodimer) on human cells (Q6UWB1 33-636 limits assumed, chain 1 of 2): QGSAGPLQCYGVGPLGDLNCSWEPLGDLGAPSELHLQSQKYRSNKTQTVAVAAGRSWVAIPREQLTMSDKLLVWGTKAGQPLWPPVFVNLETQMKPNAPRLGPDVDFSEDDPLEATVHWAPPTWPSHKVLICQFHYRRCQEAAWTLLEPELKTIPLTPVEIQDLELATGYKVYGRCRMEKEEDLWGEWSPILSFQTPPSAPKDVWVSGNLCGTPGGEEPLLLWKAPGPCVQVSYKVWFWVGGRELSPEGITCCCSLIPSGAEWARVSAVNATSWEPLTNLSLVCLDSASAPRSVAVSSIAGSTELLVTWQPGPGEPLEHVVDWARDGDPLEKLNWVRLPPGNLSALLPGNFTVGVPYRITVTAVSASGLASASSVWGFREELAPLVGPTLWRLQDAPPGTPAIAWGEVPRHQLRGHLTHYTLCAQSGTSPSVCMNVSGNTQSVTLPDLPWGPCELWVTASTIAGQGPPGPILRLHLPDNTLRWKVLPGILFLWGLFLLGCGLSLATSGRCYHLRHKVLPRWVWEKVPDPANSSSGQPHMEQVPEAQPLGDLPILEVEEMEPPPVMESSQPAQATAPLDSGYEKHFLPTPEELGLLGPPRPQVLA
Chain of human IL27 receptor (IL27RA/gp130 heterodimer) on human cells (P40189 23-918 limits assumed, chain 2 of 2): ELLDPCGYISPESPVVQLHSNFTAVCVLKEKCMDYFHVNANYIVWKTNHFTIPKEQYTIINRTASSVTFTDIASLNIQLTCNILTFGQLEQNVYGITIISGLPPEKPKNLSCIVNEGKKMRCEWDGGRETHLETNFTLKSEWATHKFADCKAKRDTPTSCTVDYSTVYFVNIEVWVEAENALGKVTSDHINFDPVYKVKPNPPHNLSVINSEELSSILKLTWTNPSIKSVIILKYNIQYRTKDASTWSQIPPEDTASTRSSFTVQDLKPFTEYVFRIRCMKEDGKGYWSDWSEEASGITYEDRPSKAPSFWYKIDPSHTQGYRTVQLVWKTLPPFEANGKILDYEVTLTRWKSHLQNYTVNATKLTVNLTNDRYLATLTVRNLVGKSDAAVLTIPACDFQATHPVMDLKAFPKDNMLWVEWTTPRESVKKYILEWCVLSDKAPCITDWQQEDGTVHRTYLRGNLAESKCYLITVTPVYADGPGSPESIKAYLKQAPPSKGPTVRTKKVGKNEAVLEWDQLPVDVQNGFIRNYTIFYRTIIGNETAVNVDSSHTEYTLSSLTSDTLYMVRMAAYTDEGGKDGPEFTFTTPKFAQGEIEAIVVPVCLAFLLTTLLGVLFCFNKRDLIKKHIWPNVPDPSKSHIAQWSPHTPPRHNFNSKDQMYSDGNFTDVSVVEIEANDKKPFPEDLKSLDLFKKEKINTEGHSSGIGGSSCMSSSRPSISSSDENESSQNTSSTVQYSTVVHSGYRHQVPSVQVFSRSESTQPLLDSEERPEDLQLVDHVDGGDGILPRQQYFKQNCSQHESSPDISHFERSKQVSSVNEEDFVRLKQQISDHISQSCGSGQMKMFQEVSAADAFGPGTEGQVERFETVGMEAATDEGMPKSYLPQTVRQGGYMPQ

- IDO1 in CD14+ monocytes EC50: 0.015 nM
- PD-L1 in CD14+ monocytes EC50 (human whole blood): 0.006 nM
- pSTAT1 in CD3+ T cells EC50 (human whole blood): 0.233 nM
B1: GBT-IL-27R-4933 (KiH-mFd format IL27RA/gp130 bispecific antibody) (bispecific antibody, human IgG1, kappa)
chain 1: DIQMTQSPSSLSASVGDRVTITCRASQSVSSSYLAWYQQKPGKAPKLLIYGTESRATGVPSRFSGSGSGTDFTLTISSLQPEDFATYYCQQYGGYPTFGGGTKVEIKRTVAAPSVFIFPPSDEQLKSGTASVVCLLNNFYPREAKVQWKVDNALQSGNSQESVTEQDSKDSTYSLSSTLTLSKADYEKHKVYACEVTHQGLSSPVTKSFNRGECDKTHTCPPCPAPEAAGAPSVFLFPPKPKDTLMISRTPEVTCVVVDVSHEDPEVKFNWYVDGVEVHNAKTKPREEQYNSTYRVVSVLTVLHQDWLNGKEYKCKVSNKALPAPIEKTISKAKGQPREPQVYTLPPCREEMTKNQVSLSCAVKGFYPSDIAVEWESNGQPENNYKTTPPVLDSDGSFFLVSKLTVDKSRWQQGNVFSCSVMHEALHNHYTQKSLSLSPGK
chain 2: QVQLVQSGAEVKKPGSSVKVSCKVSGGSISSYYWSWVRQAPGQGLEWIGRIYITGNTNYNPSLKDRVTMTVDTSTSTHYMELSSLRSEDTAVYYCAREGPKLGIFDYWGQGTLVTVSSASTKGPSVFPLAPSSKSTSGGTAALGCLVKDYFPEPVTVSWNSGALTSGVHTFPAVLQSSGLYSLSSVVTVPSSSLGTQTYICNVNHKPSNTKVDKKVEPKSC
heavy: EVQLVESGGGLVQPGGSLRLSCAASGFTFEYFGLQWVRQAPGKGLEWIGYTSSGGNYEYYEETLKGRFTISRDNAKNSLYLQMNSLRAEDTAVYYCARTKTGDYWGQGTLVTVSSASTKGPSVFPLAPSSKSTSGGTAALGCLVKDYFPEPVTVSWNSGALTSGVHTFPAVLQSSGLYSLSSVVTVPSSSLGTQTYICNVNHKPSNTKVDKKVEPKSCDKTHTCPPCPAPEAAGAPSVFLFPPKPKDTLMISRTPEVTCVVVDVSHEDPEVKFNWYVDGVEVHNAKTKPREEQYNSTYRVVSVLTVLHQDWLNGKEYKCKVSNKALPAPIEKTISKAKGQPREPQVCTLPPSREEMTKNQVSLWCLVKGFYPSDIAVEWESNGQPENNYKTTPPVLDSDGSFFLYSKLTVDKSRWQQGNVFSCSVMHEALHNHYTQKSLSLSPGK
light: DIQMTQSPSSLSASVGDRVTITCRASQDIGNSLTWYQQKPGKAPKRVIFGATGLAAGVPSRFSGSGSGTDFTLTISSLQPEDFATYYCLQSKQYPYTFGQGTKLEIKRTVAAPSVFIFPPSDEQLKSGTASVVCLLNNFYPREAKVQWKVDNALQSGNSQESVTEQDSKDSTYSLSSTLTLSKADYEKHKVYACEVTHQGLSSPVTKSFNRGEC
